# Patent publication US20160272683A1 (Novo Nordisk, published 2016)
# Numbered stars: 1 amine (or outer) side, 2 acyl side, 3 side chain; on linkers, the order of the positions; unused ones are H or OH. Ends that are not written are not given here. * marks the point of attachment. C20 diacid = O=C(O)CCCCCCCCCCCCCCCCCCC(=O)*; C18 diacid = O=C(O)CCCCCCCCCCCCCCCCC(=O)*; γGlu = O=C(O)[C@H](CCC(=O)[*:2])N[*:1]
# B1: [N-terminal(C18 diacid), 18A]mimylin (peptide)
# peptide: {C18 diacid}-EASELSTAALGRLSAELAELATLPRTETGPESP-NH2
# SMILES: CC(C)C[C@H](NC(=O)[C@H](C)NC(=O)[C@H](C)NC(=O)[C@@H](NC(=O)[C@H](CO)NC(=O)[C@H](CC(C)C)NC(=O)[C@H](CCC(=O)O)NC(=O)[C@H](CO)NC(=O)[C@H](C)NC(=O)[C@H](CCC(=O)O)NC(=O)CCCCCCCCCCCCCCCCC(=O)O)[C@@H](C)O)C(=O)NCC(=O)N[C@@H](CCCNC(=N)N)C(=O)N[C@@H](CC(C)C)C(=O)N[C@@H](CO)C(=O)N[C@@H](C)C(=O)N[C@@H](CCC(=O)O)C(=O)N[C@@H](CC(C)C)C(=O)N[C@@H](C)C(=O)N[C@@H](CCC(=O)O)C(=O)N[C@@H](CC(C)C)C(=O)N[C@@H](C)C(=O)N[C@H](C(=O)N[C@@H](CC(C)C)C(=O)N1CCC[C@H]1C(=O)N[C@@H](CCCNC(=N)N)C(=O)N[C@H](C(=O)N[C@@H](CCC(=O)O)C(=O)N[C@H](C(=O)NCC(=O)N1CCC[C@H]1C(=O)N[C@@H](CCC(=O)O)C(=O)N[C@@H](CO)C(=O)N1CCC[C@H]1C(N)=O)[C@@H](C)O)[C@@H](C)O)[C@@H](C)O
# B2: [N-terminal(C18 diacid), 9L]mimylin (peptide)
# peptide: {C18 diacid}-EASELSTALLGRLSAELHELATLPRTETGPESP-NH2
# SMILES: CC(C)C[C@H](NC(=O)[C@H](C)NC(=O)[C@@H](NC(=O)[C@H](CO)NC(=O)[C@H](CC(C)C)NC(=O)[C@H](CCC(=O)O)NC(=O)[C@H](CO)NC(=O)[C@H](C)NC(=O)[C@H](CCC(=O)O)NC(=O)CCCCCCCCCCCCCCCCC(=O)O)[C@@H](C)O)C(=O)N[C@@H](CC(C)C)C(=O)NCC(=O)N[C@@H](CCCNC(=N)N)C(=O)N[C@@H](CC(C)C)C(=O)N[C@@H](CO)C(=O)N[C@@H](C)C(=O)N[C@@H](CCC(=O)O)C(=O)N[C@@H](CC(C)C)C(=O)N[C@@H](Cc1c[nH]cn1)C(=O)N[C@@H](CCC(=O)O)C(=O)N[C@@H](CC(C)C)C(=O)N[C@@H](C)C(=O)N[C@H](C(=O)N[C@@H](CC(C)C)C(=O)N1CCC[C@H]1C(=O)N[C@@H](CCCNC(=N)N)C(=O)N[C@H](C(=O)N[C@@H](CCC(=O)O)C(=O)N[C@H](C(=O)NCC(=O)N1CCC[C@H]1C(=O)N[C@@H](CCC(=O)O)C(=O)N[C@@H](CO)C(=O)N1CCC[C@H]1C(N)=O)[C@@H](C)O)[C@@H](C)O)[C@@H](C)O
# B3: [N-terminal(C20 diacid-gGlu), des1, 4Q, 9V, 15Q, 16R, 19R, 21Q, 23Y, 27Q, 30S, 31Q, 32T, 33Y]mimylin (peptide)
# peptide: {C20 diacid-γGlu}-ASQLSTAVLGRLSQRLHRLQTYPRTQTGSQTY-NH2
# SMILES: CC(C)C[C@H](NC(=O)[C@H](CCCNC(=N)N)NC(=O)CNC(=O)[C@H](CC(C)C)NC(=O)[C@@H](NC(=O)[C@H](C)NC(=O)[C@@H](NC(=O)[C@H](CO)NC(=O)[C@H](CC(C)C)NC(=O)[C@H](CCC(N)=O)NC(=O)[C@H](CO)NC(=O)[C@H](C)NC(=O)CC[C@H](NC(=O)CCCCCCCCCCCCCCCCCCC(=O)O)C(=O)O)[C@@H](C)O)C(C)C)C(=O)N[C@@H](CO)C(=O)N[C@@H](CCC(N)=O)C(=O)N[C@@H](CCCNC(=N)N)C(=O)N[C@@H](CC(C)C)C(=O)N[C@@H](Cc1c[nH]cn1)C(=O)N[C@@H](CCCNC(=N)N)C(=O)N[C@@H](CC(C)C)C(=O)N[C@@H](CCC(N)=O)C(=O)N[C@H](C(=O)N[C@@H](Cc1ccc(O)cc1)C(=O)N1CCC[C@H]1C(=O)N[C@@H](CCCNC(=N)N)C(=O)N[C@H](C(=O)N[C@@H](CCC(N)=O)C(=O)N[C@H](C(=O)NCC(=O)N[C@@H](CO)C(=O)N[C@@H](CCC(N)=O)C(=O)N[C@H](C(=O)N[C@@H](Cc1ccc(O)cc1)C(N)=O)[C@@H](C)O)[C@@H](C)O)[C@@H](C)O)[C@@H](C)O
# B4: [N-terminal(C20 diacid-gGlu), des1, 4G, 9V, 12K, 15Q, 21Q, 23Y, 25P, 30S, 31G, 32T, 33Y]mimylin (peptide)
# peptide: {C20 diacid-γGlu}-ASGLSTAVLGKLSQELHELQTYPPTETGSGTY-NH2
# SMILES: CC(C)C[C@H](NC(=O)CNC(=O)[C@H](CO)NC(=O)[C@H](C)NC(=O)CC[C@H](NC(=O)CCCCCCCCCCCCCCCCCCC(=O)O)C(=O)O)C(=O)N[C@@H](CO)C(=O)N[C@H](C(=O)N[C@@H](C)C(=O)N[C@H](C(=O)N[C@@H](CC(C)C)C(=O)NCC(=O)N[C@@H](CCCCN)C(=O)N[C@@H](CC(C)C)C(=O)N[C@@H](CO)C(=O)N[C@@H](CCC(N)=O)C(=O)N[C@@H](CCC(=O)O)C(=O)N[C@@H](CC(C)C)C(=O)N[C@@H](Cc1c[nH]cn1)C(=O)N[C@@H](CCC(=O)O)C(=O)N[C@@H](CC(C)C)C(=O)N[C@@H](CCC(N)=O)C(=O)N[C@H](C(=O)N[C@@H](Cc1ccc(O)cc1)C(=O)N1CCC[C@H]1C(=O)N1CCC[C@H]1C(=O)N[C@H](C(=O)N[C@@H](CCC(=O)O)C(=O)N[C@H](C(=O)NCC(=O)N[C@@H](CO)C(=O)NCC(=O)N[C@H](C(=O)N[C@@H](Cc1ccc(O)cc1)C(N)=O)[C@@H](C)O)[C@@H](C)O)[C@@H](C)O)[C@@H](C)O)C(C)C)[C@@H](C)O
# B5: [N-terminal(C20 diacid-gGlu), des1, 2L, 4Q, 8L, 9V, 15Q, 16R, 19R, 21Q, 23Y, 27Q, 30S, 31Q, 32T, 33Y]mimylin (peptide)
# peptide: {C20 diacid-γGlu}-LSQLSTLVLGRLSQRLHRLQTYPRTQTGSQTY-NH2
# SMILES: CC(C)C[C@H](NC(=O)CC[C@H](NC(=O)CCCCCCCCCCCCCCCCCCC(=O)O)C(=O)O)C(=O)N[C@@H](CO)C(=O)N[C@@H](CCC(N)=O)C(=O)N[C@@H](CC(C)C)C(=O)N[C@@H](CO)C(=O)N[C@H](C(=O)N[C@@H](CC(C)C)C(=O)N[C@H](C(=O)N[C@@H](CC(C)C)C(=O)NCC(=O)N[C@@H](CCCNC(=N)N)C(=O)N[C@@H](CC(C)C)C(=O)N[C@@H](CO)C(=O)N[C@@H](CCC(N)=O)C(=O)N[C@@H](CCCNC(=N)N)C(=O)N[C@@H](CC(C)C)C(=O)N[C@@H](Cc1c[nH]cn1)C(=O)N[C@@H](CCCNC(=N)N)C(=O)N[C@@H](CC(C)C)C(=O)N[C@@H](CCC(N)=O)C(=O)N[C@H](C(=O)N[C@@H](Cc1ccc(O)cc1)C(=O)N1CCC[C@H]1C(=O)N[C@@H](CCCNC(=N)N)C(=O)N[C@H](C(=O)N[C@@H](CCC(N)=O)C(=O)N[C@H](C(=O)NCC(=O)N[C@@H](CO)C(=O)N[C@@H](CCC(N)=O)C(=O)N[C@H](C(=O)N[C@@H](Cc1ccc(O)cc1)C(N)=O)[C@@H](C)O)[C@@H](C)O)[C@@H](C)O)[C@@H](C)O)C(C)C)[C@@H](C)O
# Target: T1, human amylin 3(a) receptor (human calcitonin receptor co-expressed with RAMP-3) (human, UniProt P30988 25-474; O60896 24-148, limits assumed)
# T1 sequence (looked up) 1: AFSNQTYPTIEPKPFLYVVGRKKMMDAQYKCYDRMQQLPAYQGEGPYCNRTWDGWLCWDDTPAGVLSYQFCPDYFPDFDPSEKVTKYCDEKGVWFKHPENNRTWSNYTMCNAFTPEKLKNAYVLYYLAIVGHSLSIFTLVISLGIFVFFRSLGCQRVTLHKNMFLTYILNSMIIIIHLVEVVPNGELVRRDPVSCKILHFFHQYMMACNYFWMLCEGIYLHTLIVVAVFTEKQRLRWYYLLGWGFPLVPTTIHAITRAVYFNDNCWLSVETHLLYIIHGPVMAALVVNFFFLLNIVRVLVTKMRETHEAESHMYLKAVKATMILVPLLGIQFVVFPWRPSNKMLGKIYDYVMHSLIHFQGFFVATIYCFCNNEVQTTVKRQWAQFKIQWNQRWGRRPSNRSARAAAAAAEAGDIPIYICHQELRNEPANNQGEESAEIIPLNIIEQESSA
# T1 sequence (looked up) 2: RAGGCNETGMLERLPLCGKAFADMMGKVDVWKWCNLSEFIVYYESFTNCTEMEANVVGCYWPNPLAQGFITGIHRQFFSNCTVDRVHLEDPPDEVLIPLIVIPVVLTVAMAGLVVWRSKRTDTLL
# Assay: cell-based or functional assay
row,Binder,hAmylin-R funct. EC50 (pM)
1,"ASGLSTATLGRLSQELHELQTYPRTETGSGTY (ends and bridges not checked) [[des1, 4G, 9T, 15Q, 21Q, 23Y, 30S, 31G, 32T, 33Y]mimylin]",5 pM
2,"ASGLSTAVLGRLSQELHELQTYPRTETGSGTY (ends and bridges not checked) [[des1, 4G, 9V, 15Q, 21Q, 23Y, 30S, 31G, 32T, 33Y]mimylin]",8 pM
3,B1,4 pM
4,B2,28 pM
5,"EASELSTAALGRLSAELHELATLPRTETGSGSP-NH2 [[30S, 31G]mimylin]",5 pM
6,"LSGLSTAVLGRLSQELHELQTYPRTETGSQTY-NH2 [[des1, 2L, 4G, 9V, 15Q, 21Q, 23Y, 30S, 31Q, 32T, 33Y]mimylin]",11 pM
7,"ASEVSTAVLGRLSAELHELATLPRTETGSGSP-NH2 [[des1, 5V, 9V, 30S, 31G]mimylin]",7 pM
8,"ASELSTAALGHLSAELHELATLPRTETGSGSP-NH2 [[des1, 12H, 30S, 31G]mimylin]",14 pM
9,B3,16 pM
10,"ASELTTAVLGRLSAELHELATLPRTETGTGTP-NH2 [[des1, 6T, 9V, 30T, 31G, 32T]mimylin]",46 pM
11,B4,18 pM
12,"ASELTTAVLGRLEAELHELTTLPRTETGTGTP-NH2 [[des1, 6T, 9V, 14E, 21T, 30T, 31G, 32T]mimylin]",629 pM
13,EASELSTAALGRLSAELHELATLPRTETGPESP-NH2 [mimylin],3 pM
14,EASELSTAALGRLSAELHELATLPRTETGPESP-OH [[C-terminal(-)]mimylin],23600 pM
15,"{C18 diacid}-EASELSTAALGRLSAELHELATLPRTETGPESP-OH [[N-terminal(C18 diacid), C-terminal(-)]mimylin]",481 pM
16,B5,10 pM

# Target: T2, human calcitonin receptor (human, UniProt P30988 25-474)
# T2 sequence (looked up): T1 sequence (looked up) 1
# Assay: cell-based or functional assay
row,Binder,hCTR funct. EC50 (pM)
1,"ASGLSTATLGRLSQELHELQTYPRTETGSGTY (ends and bridges not checked) [[des1, 4G, 9T, 15Q, 21Q, 23Y, 30S, 31G, 32T, 33Y]mimylin]",4 pM
2,"ASGLSTAVLGRLSQELHELQTYPRTETGSGTY (ends and bridges not checked) [[des1, 4G, 9V, 15Q, 21Q, 23Y, 30S, 31G, 32T, 33Y]mimylin]",4 pM
3,B1,3 pM
4,B2,13 pM
5,"EASELSTAALGRLSAELHELATLPRTETGSGSP-NH2 [[30S, 31G]mimylin]",2 pM
6,"LSGLSTAVLGRLSQELHELQTYPRTETGSQTY-NH2 [[des1, 2L, 4G, 9V, 15Q, 21Q, 23Y, 30S, 31Q, 32T, 33Y]mimylin]",6 pM
7,"ASEVSTAVLGRLSAELHELATLPRTETGSGSP-NH2 [[des1, 5V, 9V, 30S, 31G]mimylin]",2 pM
8,"ASELSTAALGHLSAELHELATLPRTETGSGSP-NH2 [[des1, 12H, 30S, 31G]mimylin]",3 pM
9,B3,15 pM
10,"ASELTTAVLGRLSAELHELATLPRTETGTGTP-NH2 [[des1, 6T, 9V, 30T, 31G, 32T]mimylin]",9 pM
11,B4,15 pM
12,"ASELTTAVLGRLEAELHELTTLPRTETGTGTP-NH2 [[des1, 6T, 9V, 14E, 21T, 30T, 31G, 32T]mimylin]",103 pM
13,EASELSTAALGRLSAELHELATLPRTETGPESP-NH2 [mimylin],1 pM
14,EASELSTAALGRLSAELHELATLPRTETGPESP-OH [[C-terminal(-)]mimylin],840 pM
15,"{C18 diacid}-EASELSTAALGRLSAELHELATLPRTETGPESP-OH [[N-terminal(C18 diacid), C-terminal(-)]mimylin]",45 pM
16,B5,12 pM
